# Reference: the RNAGym collection of RNA variant scans (doi:10.1073/pnas.2313332121)
# B1: TPR t1 (parent)
# chain: GACCAAUCUGCCCUCAGAGCUCGAGAACAUCUUCGGAUGCAGAGGAGGCAGGCUUCGGUGGCGCGAUAGCGCCAACGUCCUCAACCUCCAAUGCAUCCCACCACAUGAUGAUGCCUGAAGAGCCUUGGUUUUUUG
# Variants of: B1
# Experiment: polymerase ribozyme fitness, log enrichment relative to wild type (log ratio); higher = more active; in vitro selection for triplet polymerase activity
# Summary of the method: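 Mutant libraries were PCR-built and transcribed for each subunit of a heterodimeric triplet polymerase ribozyme and selected for one round in triplicate at −7 °C, frozen, before gel excision of extended constructs and streptavidin-bead capture. Input and output libraries were Illumina-sequenced, keeping genotypes with ≥10 input reads and ≥1 read per output. Fitness is a logarithmic ratio of genotype to wild-type enrichment, in base 2, using inverse-variance-weighted replicate averages.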
row,Variant,polymerase ribozyme fitness (log ratio)
1,GACCAAUCUGCCCUCAGAGCUCGAGAACAUCUUCGGAUGCAGAGGAGGCAGGCUUCGGUGGUGCGAUAGCGCCAACGCCCUCAACCUCCAAUGCAUCCCACCACACGAUGAUGCCUGAAGAGCCUUGGUUUUUUG [C62U U78C U106C],-0.597
2,GACCAAUCUGCCCUCAGAGCUCGAGAACAUCUUCGGAUGCAGAGGAGGCAGGCUUCGGUGGUGCGAUAGCGCCAACGUCCUCAACCUCCAAUGCAUCCCACCACAUGAUGAUGCCUGAAAAGCCUUGGUUUUUUG [C62U G120A],1.09
3,GACCAAUCUGCCCUCAGAGCUCGAGAACAUCUUCGGAUGCAGAGGAGGCAGGCUUCGGUGGCACGAUAGCGCAAACGUCCUCAACCUCCAAUGCAUCCCACCACAUGAUGAUGGCUGAAGAGCCUUGGUUUUUUG [G63A C73A C114G],-5.85
4,GACCAAUCUGCCCUCAGAGCUCGAGAACAUCUUCGGAUGCAGAGGAGGCAGGCUUCGGUGGCACGAUAGCGGCAACGUCCUCAACCUCCAAUGCAUCCCACCACAUGAUGAUGCCUGAAGAGCCUUGGUUUUUUG [G63A C72G],-3.11
5,GACCAAUCUGCCCUCAGAGCUCGAGAACAUCUUCGGAUGCAGAGGAGGCAGGCUUCGGUGGUGCGAUAGCGCCAACGUCCUCAACCUCCAAUGCAUCCCACCACAUGAUGAUGCCUGAAGAGCCUUGGUUUUUUU [C62U G135U],-0.561
6,GACCAAUCUGCCCUCAGAGCUCGAGAACAUCUUCGGAUGCAGAGGAGGCAGGCUUCGGUGGCACGAUAGCGCCAACGUCCUCAACCUCCAAUACAUUCCACCACAUGAUGAUGCCUGAAGAGCCUUGGUAUUUUG [G63A G93A C97U U130A],-2.59
7,GACCAAUCUGCCCUCAGAGCUCGAGAACAUCUUCGGAUGCAGAGGAGGCAGGCUUCGGUGGUGCGAUAGCGCCAACGUCCUCAACCUCCAAUGCAUCCCACCACAUGAUGAUGCCUGAAGAGCCUUGGGUUUUUG [C62U U129G],-1.28
8,GACCAAUCUGCCCUCAGAGCUCGAGAACAUCUUCGGAUGCAGAGGAGGCAGGCUUCGGUGGUGCGAUAGCGCCAACGUCCUCAACCUCCAAUGCAUCCCACCACAUGAUGAUGCCUGAAGAGCCUUGGCUUUUUG [C62U U129C],0.0239
9,GACCAAUCUGCCCUCAGAGCUCGAGAACAUCUUCGGAUGCAGAGGAGGCAGGCUUCGGUGGCACGAUAGCGCCAACCUCCUCAACCUCCAAUGCAUCCCACCACAUGAUGAUGCCUGAUGAGCCUUGGUUUUUUG [G63A G77C A119U],-2.08
10,GACCAAUCUGCCCUCAGAGCUCGAGAACAUCUUCGGAUGCAGAGGAGGCAGGCUUCGGUGGCACGAUAGCGCCAACGUCCUCAACCUCCAAUUCAUCUCACCACAUGAUGAUGCCUGAAGGGCCUUGGUUUUUUG [G63A G93U C98U A121G],-0.418
11,GACCAAUCUGCCCUCAGAGCUCGAGAACAUCUUCGGAUGCAGAGGAGGCAGGCUUCGGUGGUGCGAUAGCGCCAACGGCCUCAACUUCCAAUGCAUCCCACCACAUGAUGAUGCCUGAAGAGCCUUGGUUUUUUG [C62U U78G C86U],-0.761
12,GACCAAUCUGCCCUCAGAGCUCGAGAACAUCUUCGGAUGCAGAGGAGGCAGGCUUCGGUGGUGCGAUAGCGCCAACGUCCUCAACCUCCAAUGCAUCCCACCACAUGAUGAUGCCUGAAGAGCCUUGGUUUUGUG [C62U U133G],-1.15
13,GACCAAUCUGCCCUCAGAGCUCGAGAACAUCUUCGGAUGCAGAGGAGGCAGGCUUCGGUGGUGCGAUAGCGCCAACGACCUCAACCUCUAAUGCAUCCCACCACAUGAUGAUGCCUAAAGAGCCUUGGUUUUUUG [C62U U78A C89U G117A],-2.6
14,GACCAAUCUGCCCUCAGAGCUCGAGAACAUCUUCGGAUGCAGAGGAGGCAGGCUUCGGUGGUGCGAUAGCGCCAACGUCCUCAACCUCCAAUGCAUCCCACCACAUGAUGAUGUCUGAAGAGCCUUGGUUUUUUG [C62U C114U],-1.82
15,GACCAAUCUGCCCUCAGAGCUCGAGAACAUCUUCGGAUGCAGAGGAGGCAGGCUUCGGUGGUGCGAUAGCGCCAACGUCCUCAACCUCCAAUGCAUCCCACCACAUGAUGAUGGCUGAAGAGCCUUGGUUUUUUG [C62U C114G],-3.11
16,GACCAAUCUGCCCUCAGAGCUCGAGAACAUCUUCGGAUGCAGAGGAGGCAGGCUUCGGUGGCACGAUAGCGCCAACGUCCUCAUCAUCCAAUGCAUCCCACCACAUGAUGAUGCCUGAAGAGCCGUGGUUUUUUG [G63A A84U C86A U125G],-2.61
17,GACCAAUCUGCCCUCAGAGCUCGAGAACAUCUUCGGAUGCAGAGGAGGCAGGCUUCGGUGGCACGAUAGCGCCAACGUCCUCAACCUCCAAUGCAUCCCACCACAUGAUGAUGCGUGAAGAGCCUUGGUUUUUUG [G63A C115G],-3.51
18,GACCAAUCUGCCCUCAGAGCUCGAGAACAUCUUCGGAUGCAGAGGAGGCAGGCUUCGGUGGUGCGAUAGCGCCAACGUCCUCAACCUCCAAUGCAUCCCACCACAUGAUGAUGCCUGAAGAGCCGUCGUUUUUUG [C62U U125G G127C],-1.39
19,GACCAAUCUGCCCUCAGAGCUCGAGAACAUCUUCGGAUGCAGAGGAGGCAGGCUUCGGUGGUGCGAUAGCGCCAACGUCCUCAACCUCCAAUGCAUCCCACCACAUCAUGAUGCCUGAAGAGCCUUGGUUUUUUG [C62U G107C],-5.77
20,GACCAAUCUGCCCUCAGAGCUCGAGAACAUCUUCGGAUGCAGAGGAGGCAGGCUUCGGUGGUGCGAUAGCGCCAACGUCCUCAACCCCCAAUGCAUCCCACCACAUGAUGAUGCCUGAAGAGCCUUGGUUUUUUG [C62U U87C],-0.408
21,GACCAAUCUGCCCUCAGAGCUCGAGAACAUCUUCGGAUGCAGAGGAGGCAGGCUUCGGUGGCACGAUAGCGCCAACGUCCUCAACCUCCAAUACAUCCCACCACAUGAUGAUGCCUGAAUAGCCUUGGUUUUUUG [G63A G93A G120U],-1.07
